The test system of series [1] is biotinyl-Met-oxazolone. As to the kind of experiment: self-aminoacylation, catalytic enhancement (BMO) (fold over background); higher = more active; k-Seq, kA / k0A0; sequences stand for … in GGGAAUGGAUCCACAUCUACGAAUUC…UUCACUGCAGACUUGACGAAGCUG
An outline of the steps: (§1)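 The uncatalyzed rate is the low-activity peak of a bimodal Gaussian fit, and catalytic enhancement is median kA divided by it. The kA values came from pseudo-first-order fits, with 1000 bootstraps, of per-sequence fraction reacted measured by streptavidin capture, triplicate qPCR and Illumina sequencing. Mutagenized RNA pools with a 21-nt variable region (0.43 μM) were reacted with each biotinyl-aminoacyl-oxazolone at 2–1250 μM in 50 μL HEPES/NaCl/KCl/MgCl2/CaCl2 buffer with 5% acetonitrile, pH 6.9–7.0, for 90 minutes at room temperature.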

Series [2] deals with biotinyl-Ile-oxazolone. As to the kind of experiment: self-aminoacylation, catalytic enhancement (BIO) (fold over background); higher = more active; k-Seq, kA / k0A0; sequences stand for … in GGGAAUGGAUCCACAUCUACGAAUUC…UUCACUGCAGACUUGACGAAGCUG
An outline of the steps: as §1

Series [3] relates to biotinyl-Trp-oxazolone. As to the kind of experiment: self-aminoacylation, catalytic enhancement (BWO) (fold over background); higher = more active; k-Seq, kA / k0A0; sequences stand for … in GGGAAUGGAUCCACAUCUACGAAUUC…UUCACUGCAGACUUGACGAAGCUG
In a few lines: as §1

The subject of series [4] is biotinyl-Val-oxazolone. Description: self-aminoacylation, catalytic enhancement (BVO) (fold over background); higher = more active; k-Seq, kA / k0A0; sequences stand for … in GGGAAUGGAUCCACAUCUACGAAUUC…UUCACUGCAGACUUGACGAAGCUG
An outline of the steps:
as §1

Series [5] concerns biotinyl-Phe-oxazolone. Description: self-aminoacylation, catalytic enhancement (BFO) (fold over background); higher = more active; k-Seq, kA / k0A0; sequences stand for … in GGGAAUGGAUCCACAUCUACGAAUUC…UUCACUGCAGACUUGACGAAGCUG
In a few lines:
as §1

Series [6] deals with biotinyl-Leu-oxazolone. As to the kind of experiment: self-aminoacylation, catalytic enhancement (BLO) (fold over background); higher = more active; k-Seq, kA / k0A0; sequences stand for … in GGGAAUGGAUCCACAUCUACGAAUUC…UUCACUGCAGACUUGACGAAGCUG
An outline of the steps:
as §1

This sample holds only a part of the variants without activity.

As to “AUUCACCCAGGACAUCGGGUG [Fam2.2 aminoacylation ribozyme variant]”, the self-aminoacylation was determined as 2.8 in series [1]; 2.97 in series [2]; 3.3 in series [3]; 3.27 in series [4]; 30.2 in series [5]; 2.83 in series [6].

On to “CUACUUCAAAAAAUCGCUCUG [Fam1A.1 aminoacylation ribozyme variant]”, for which the self-aminoacylation stood at 0.492 in series [1]; 0.539 in series [2]; 0.727 in series [3]; 0.484 in series [4]; 0.901 in series [5]; 0.486 in series [6].

For the sequence “AUUCACCCAGGUCAUCAGGUG [Fam2.2 aminoacylation ribozyme variant]”, the self-aminoacylation in series [1] amounted to 1; in series [2] it was 0.991; in series [3], 0.804; in series [4] it was 1.01; in series [5], 0.632; in series [6], 1.08.

“CCACACUUCUAGCAAUCGUUC [Fam1B.1 aminoacylation ribozyme variant]”: the self-aminoacylation in series [1] was 0.511; in series [2] it was 0.767; in series [3], 0.481; in series [4] it was 1.01; in series [5], 1.04; in series [6], 0.558.

Regarding “CCACACUUCAUGCAAUCGGUC [Fam1B.1 aminoacylation ribozyme variant]”, the self-aminoacylation amounted to 0.687 in series [1]; 0.819 in series [2]; 0.689 in series [3]; 0.9 in series [4]; 0.866 in series [5]; 0.693 in series [6].

On to “CUACUUCAGACUAUCGGUCUG [Fam1A.1 aminoacylation ribozyme variant]”, for which the self-aminoacylation was 0.734 in series [1]; 0.816 in series [2]; 0.939 in series [3]; 0.943 in series [4]; 0.949 in series [5]; 0.832 in series [6].

On to “AAGUUGGCUAAUAGUCGUAAG [Fam3.1 aminoacylation ribozyme variant]”, for which the self-aminoacylation was determined as 1.33 in series [1]; 1.49 in series [2]; 4.1 in series [3]; 1.37 in series [4]; 10.7 in series [5]; 1.14 in series [6].

For “AUUCAACUAGAUCAUCGGGUG [Fam2.2 aminoacylation ribozyme variant]”, the self-aminoacylation in series [1] is 2.44; in series [2], 1.82; in series [3] it was 2.93; in series [4], 1.77; in series [5] it was 9.72; in series [6], 2.53.

As to “CCACACUUCAAGCAUCCGGUC [Fam1B.1 aminoacylation ribozyme variant]”, the self-aminoacylation in series [1] was 0.859; in series [2], 1.03; in series [3], 1.11; in series [4], 1.38; in series [5] it was 0.999; in series [6], 0.817.

For the sequence “AUUACCCUGGUCAUCGUGUAA [Fam2.1 aminoacylation ribozyme variant]”, the self-aminoacylation in series [1] worked out at 1.07; in series [2], 1.13; in series [3] it was 0.503; in series [4] it was 1.18; in series [5], 0.847; in series [6], 1.26.

Consider “AUUAACCUGGUCAUCGACUGA [Fam2.1 aminoacylation ribozyme variant]”, for which the self-aminoacylation in series [1] was 0.801; in series [2], 0.842; in series [3], 0.612; in series [4], 0.746; in series [5], 0.674; in series [6], 0.938.

For the sequence “GUUACCCUGGUCAUCGAAUGA [Fam2.1 aminoacylation ribozyme variant]”, the self-aminoacylation in series [1] came to 1.52; in series [2], 1.58; in series [3] it was 2.55; in series [4], 1.81; in series [5] it was 1.45; in series [6], 1.84.

As for “AUUAUCCUGGUCUUCGAGUGA [Fam2.1 aminoacylation ribozyme variant]”, the self-aminoacylation in series [1] was 5.8; in series [2], 3.26; in series [3], 7.67; in series [4], 2.93; in series [5], 37.6; in series [6] it was 5.95.

With “AGUACCCUGGUAAUCGAGUGA [Fam2.1 aminoacylation ribozyme variant]”, the self-aminoacylation in series [1] came out at 7.78; in series [2] it was 3.21; in series [3], 8.92; in series [4] it was 3.23; in series [5], 47.6; in series [6], 8.28.

With “AUUACCCUGGUGAUCGAGCGA [Fam2.1 aminoacylation ribozyme variant]”, the self-aminoacylation was 1.76 in series [1]; 2.06 in series [2]; 1.82 in series [3]; 1.95 in series [4]; 5 in series [5]; 1.93 in series [6].

Turning to “AUUCAACUAGGUCAUGGGGUG [Fam2.2 aminoacylation ribozyme variant]”, the self-aminoacylation in series [1] was determined as 4.28; in series [2], 2.96; in series [3], 4.16; in series [4], 3.16; in series [5], 27.7; in series [6], 5.63.

Take “GAGUUUGCUAAUAGUCUCAAG [Fam3.1 aminoacylation ribozyme variant]”: the self-aminoacylation in series [1] came to 0.852; in series [2] it was 1.32; in series [3], 2.43; in series [4], 1.08; in series [5], 6.85; in series [6] it was 0.855.

Take “AUUCACCUAGAUCUUCGGGUG [Fam2.2 aminoacylation ribozyme variant]”: the self-aminoacylation was found to be 3.09 in series [1]; 2.18 in series [2]; 2.8 in series [3]; 2.54 in series [4]; 12.3 in series [5]; 3.75 in series [6].

Take “AAGAUUGGUAAUAGUCGCAAG [Fam3.1 aminoacylation ribozyme variant]”: the self-aminoacylation was 1.75 in series [1]; 2.04 in series [2]; 2.54 in series [3]; 1.59 in series [4]; 1.65 in series [5]; 2.02 in series [6].

For the sequence “AUUACCCUGGUCAUCAAUUGA [Fam2.1 aminoacylation ribozyme variant]”, the self-aminoacylation worked out at 0.948 in series [1]; 0.823 in series [2]; 0.826 in series [3]; 0.92 in series [4]; 0.681 in series [5]; 0.963 in series [6].

In the case of “AUUCACCUAGUUCAUCUGGUG [Fam2.2 aminoacylation ribozyme variant]”, the self-aminoacylation amounted to 1.88 in series [1]; 1.56 in series [2]; 2.4 in series [3]; 1.5 in series [4]; 10.4 in series [5]; 2.44 in series [6].
